Tests used:
Assay in all cases: cell-based or functional assay
[1] = molecular target: purified F1-ATPase subcomplex isolated from bovine cardiac samples (bovine, UniProt P19483 44-553; P00829 47-528; P05631 26-297; P05630 23-168; P05632 2-51)
[2] = molecular target: purified F0-F1 ATPase complex isolated from bovine cardiac samples (bovine, UniProt P19483 44-553; P00829 47-528; P05631 26-297; P05630 23-168; P05632 2-51)
[3] = molecular target: F0-F1-ATPase in rat ASMPs (alkaline submitochondrial particles) prepared from rat cardiac samples (rat, UniProt P15999 44-553; P10719 47-529; P35435 1-272; P35434 23-168; P29418 2-51)
[4] = molecular target: mitochondrial ATP synthase (ETC Complex V) ATPase in rat liver submitochondrial particles (SMP) (rat, UniProt P15999 44-553; P10719 47-529; P35435 1-273; P35434 23-168; P29418 2-51)

IC50, inhibition of ATP hydrolysis by purified F1-ATPase [1] [nM]	IC50, inhibition of ATP hydrolysis by purified F0-F1-ATPase [2] [nM]	IC50, inhibition of F0-F1-ATPase in rat ASMPs [3] [nM]	IC50, inhibition of oligomycin-sensitive ATPase in rat liver SMP [4] [nM]	Binder
~870	~180	~2500		LAALKKHHEDEIDHHSK [IF1(42-58) synthetic polypeptide, amino acids 42-58 of the mature form of rat IF1]
			> 2600	SIREAGGAFGKREKAEEDRYFREKTREQL [IF1 peptide 14-42 (synthetic peptide fragment of rat IF1)]
~1390				FGKREKAEEDRYFREKTREQLAALK [IF1(22-46) synthetic polypeptide, amino acids 22-46 of the mature form of rat IF1]
			> 1500	SIREAGGAFGKREKAEEDRYFREKTREQLA [IF1 peptide 14-43 (synthetic peptide fragment of rat IF1)]

Reference: patent US20030026781A1 (MITOKOR, published 2003)
